Measured values taken from article PMC5789076, “Molecular basis for the specific and multivariant recognitions of RNA substrates by human hnRNP A2/B1”.

Columns and labels:
Assay in all cases: ITC; ITC: 10 mM HEPES pH 8.0, 50 mM KCl, 1 mM EDTA, 1 mM BME, 25 C (protein into RNA); EMSA: 10 mM HEPES pH 8.0, 50 mM KCl, 1 mM EDTA, 5 mM BME, room temperature 30
hnRNP A2/B1 RRM1-RRM2 = hnRNP A2/B1 RRM1-RRM2 (human, UniProt P22626 12-195); settings: protein: recombinant; tags: N-terminal His6-SUMO removed by Ulp1; single strand
Chain of hnRNP A2/B1 RRM1-RRM2 (P22626 12-195): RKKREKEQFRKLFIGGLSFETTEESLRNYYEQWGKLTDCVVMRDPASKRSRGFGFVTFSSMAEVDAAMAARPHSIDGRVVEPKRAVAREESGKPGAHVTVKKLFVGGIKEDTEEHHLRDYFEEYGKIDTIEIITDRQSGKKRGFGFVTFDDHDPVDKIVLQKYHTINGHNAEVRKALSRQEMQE

hnRNP A2/B1 full-length = hnRNP A2/B1 full-length (human, UniProt P22626 1-353); settings: protein: recombinant; tags: prepared with His6(-SUMO) tag or untagged; single strand
Chain of hnRNP A2/B1 full-length (P22626 whole entry): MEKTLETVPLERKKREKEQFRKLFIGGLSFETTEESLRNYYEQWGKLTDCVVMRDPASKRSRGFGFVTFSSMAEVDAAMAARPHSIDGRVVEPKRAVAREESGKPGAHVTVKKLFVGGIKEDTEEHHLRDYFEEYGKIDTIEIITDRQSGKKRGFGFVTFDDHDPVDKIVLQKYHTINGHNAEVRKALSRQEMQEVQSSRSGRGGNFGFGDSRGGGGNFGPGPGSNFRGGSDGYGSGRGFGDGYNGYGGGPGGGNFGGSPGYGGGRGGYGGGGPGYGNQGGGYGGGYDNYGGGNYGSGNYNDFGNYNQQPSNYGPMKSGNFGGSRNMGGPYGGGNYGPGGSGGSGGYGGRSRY

[1] = target: hnRNP A2/B1 RRMs + RGG box (human, UniProt P22626 1-249); settings: protein: recombinant; tags: N-terminal His6-SUMO removed by Ulp1; single strand
Chain of hnRNP A2/B1 RRMs + RGG box (P22626 1-249): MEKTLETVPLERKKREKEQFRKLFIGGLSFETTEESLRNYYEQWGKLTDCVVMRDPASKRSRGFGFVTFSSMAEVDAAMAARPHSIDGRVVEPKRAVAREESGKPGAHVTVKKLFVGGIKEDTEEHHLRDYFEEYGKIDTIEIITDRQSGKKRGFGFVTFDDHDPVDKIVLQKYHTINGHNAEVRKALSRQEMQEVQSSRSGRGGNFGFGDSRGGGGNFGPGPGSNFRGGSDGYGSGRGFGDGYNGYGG

[2] = target: hnRNP A2/B1 (12-195) H108A (human, UniProt P22626 12-195, H108A); settings: protein: recombinant; tags: His6-SUMO removed; single strand
Chain of hnRNP A2/B1 (12-195) H108A (P22626 12-195 H108A): as the sequence (P22626 12-195) above, with H97A counted along it

[3] = target: hnRNP A2/B1 (12-195) D49A (human, UniProt P22626 12-195, D49A); settings: protein: recombinant; tags: His6-SUMO removed; single strand
Chain of hnRNP A2/B1 (12-195) D49A (P22626 12-195 D49A): as the sequence (P22626 12-195) above, with D38A counted along it

[4] = target: hnRNP A2/B1 (12-195) F66A (human, UniProt P22626 12-195, F66A); settings: protein: recombinant; tags: His6-SUMO removed; single strand
Chain of hnRNP A2/B1 (12-195) F66A (P22626 12-195 F66A): as the sequence (P22626 12-195) above, with F55A counted along it

[5] = target: hnRNP A2/B1 (12-195) K120A (human, UniProt P22626 12-195, K120A); settings: protein: recombinant; tags: His6-SUMO removed; single strand
Chain of hnRNP A2/B1 (12-195) K120A (P22626 12-195 K120A): as the sequence (P22626 12-195) above, with K109A counted along it

[6] = target: hnRNP A2/B1 (12-195) F157A (human, UniProt P22626 12-195, F157A); settings: protein: recombinant; tags: His6-SUMO removed; single strand
Chain of hnRNP A2/B1 (12-195) F157A (P22626 12-195 F157A): as the sequence (P22626 12-195) above, with F146A counted along it

[7] = target: hnRNP A2/B1 (12-195) E92A (human, UniProt P22626 12-195, E92A); settings: protein: recombinant; tags: His6-SUMO removed; single strand
Chain of hnRNP A2/B1 (12-195) E92A (P22626 12-195 E92A): as the sequence (P22626 12-195) above, with E81A counted along it

[8] = target: hnRNP A2/B1 (12-195) F115A (human, UniProt P22626 12-195, F115A); settings: protein: recombinant; tags: His6-SUMO removed; single strand
Chain of hnRNP A2/B1 (12-195) F115A (P22626 12-195 F115A): as the sequence (P22626 12-195) above, with F104A counted along it

[9] = target: hnRNP A2/B1 (12-195) F24A (human, UniProt P22626 12-195, F24A); settings: protein: recombinant; tags: His6-SUMO removed; single strand
Chain of hnRNP A2/B1 (12-195) F24A (P22626 12-195 F24A): as the sequence (P22626 12-195) above, with F13A counted along it

[10] = target: hnRNP A2/B1 (12-195) Q19A (human, UniProt P22626 12-195, Q19A); settings: protein: recombinant; tags: His6-SUMO removed; single strand
Chain of hnRNP A2/B1 (12-195) Q19A (P22626 12-195 Q19A): as the sequence (P22626 12-195) above, with Q8A counted along it

[11] = target: hnRNP A2/B1 (12-195) K113A (human, UniProt P22626 12-195, K113A); settings: protein: recombinant; tags: His6-SUMO removed; single strand
Chain of hnRNP A2/B1 (12-195) K113A (P22626 12-195 K113A): as the sequence (P22626 12-195) above, with K102A counted along it

[12] = target: hnRNP A2/B1 (12-195) E183A (human, UniProt P22626 12-195, E183A); settings: protein: recombinant; tags: His6-SUMO removed; single strand
Chain of hnRNP A2/B1 (12-195) E183A (P22626 12-195 E183A): as the sequence (P22626 12-195) above, with E172A counted along it

Row | Binder | Kd (hnRNP A2/B1 RRM1-RRM2) [nM] | also measured
1 | AAGGACUAAC (ssRNA) [G8A] | 107 ± 16.2 | 
2 | AACGACUAGC (ssRNA) [G2C] | 699 ± 88.5 | 
3 | AAGGACUGGC (ssRNA) [A7G] | 108 ± 11.5 | 
4 | ACGGACUAGC (ssRNA) [A1C] | 662 ± 54.3 | 
5 | AAAGACUAGC (ssRNA) [G2A] | 316 ± 37 | 
6 | AUGGACUAGC (ssRNA) [A1U] | 532 ± 66.7 | 
7 | AAGGACUAGC (ssRNA, m6A at position 5) [10mer-m6A] | 1320 ± 143 | Kd (hnRNP A2/B1 full-length): 172 ± 25.6 nM; Kd [1]: 176 ± 25.3 nM
8 | AAGGACCAGC (ssRNA) [U6C] | 184 ± 16.3 | 
9 | AAGCACUAGC (ssRNA) [G3C] | 952.4 ± 1.14 | 
10 | AAGGACAAGC (ssRNA) [U6A] | 204 ± 19.9 | 
11 | AAGGACUACC (ssRNA) [G8C] | 292 ± 44.2 | 
12 | AAGGACUAUC (ssRNA) [G8U] | 272 ± 30.7 | 
13 | AAGGACUAGC (ssRNA) [10mer] | 115 ± 11.5 | Kd [2]: 167 ± 19.2 nM; Kd [3]: 562 ± 69.4 nM; Kd [4]: 763 ± 10.2 nM; Kd [5]: 413 ± 50.5 nM; Kd [6]: 535 ± 97.1 nM; Kd [7]: 752 ± 85.5 nM; Kd (hnRNP A2/B1 full-length): 103 ± 8.93 nM; Kd [8]: 781 ± 87.7 nM; Kd [9]: 457 ± 35.5 nM; Kd [10]: 440 ± 42 nM; Kd [11]: 813 ± 1.17 nM; Kd [1]: 26.5 ± 1.8 nM; Kd [12]: 290 ± 47.8 nM
14 | AGGACUGC (ssRNA) [8mer] | 276 ± 27.5 | Kd [1]: 465 ± 53.2 nM
15 | AGGACUGC (ssRNA, m6A at position 4) [8mer-m6A] | 461 ± 47.4 | Kd [1]: 505 ± 44.2 nM
16 | AAGAACUAGC (ssRNA) [G3A] | 244 ± 25.3 | 
17 | AAUGACUAGC (ssRNA) [G2U] | 581 ± 58.1 | 
